Experimental data: the DeepSol protein solubility set

Test: soluble on expression in E. coli; label from the status in PepcDB or PDB records

**Q.** For “GSHMASGDATDITIYYKTGWTHPHIHYSLNQGAWTTLPGVPLTKSEYEGYVKVTIEAEEGSQLRAAFNNGSGQWDNNQGRDYDFSSGVHTLADGRILSGTPK”, which “soluble on expression in E. coli” value is on record?
**A.** soluble

**Q.** For “MGSDKIHHHHHHMNIIKFFNQTIDYIETTLEDKIDEKKIVQLSGYSYPMFSRIFSILTAYSLSEYIRLRRLTKAAFDLRKNEEKVIDIAFKYQYESPDSFSLAFKKYHNCTPMEVKQGKDFKIFSPIHLSLTIKGGKAMEISIKKKEKFIVGGIKAENIETFQCPKVWEELFKKVSFNDLEKLGNGNSYGVCYETTSSKSINYIAAFDVKNVSEAKKLGLDTMEIPEAEYAVVKLKGKIPNCIHEGWKYVMEVFFPEHGYKHAGTPDFELYSEGDMGSDNYEMELWVPIIKAE”, which “soluble on expression in E. coli” value is on record?
**A.** not soluble

**Q.** With “VLDSFEILKALKSLDLLKNAPAWWWPNALKFEALLGAVLTQNTKFEAVLKSLENLKNAFILENDDEINLKKIAYIEFSKLAECVRPSGFYNQKAKRLIDLSGNILKDFQSFENFKQEVTREWLLDQKGIGKESADAILCYACAKEVMVVDKYSYLFLKKLGIEIEDYDELQHFFEKGVQENLNSALALYENTISLAQLYARFHGKIVEFSKQKLELKL” as the sequence, how does the “soluble on expression in E. coli” value read?
**A.** soluble

**Q.** Which “soluble on expression in E. coli” value does the source give for “MSLSPPILVGFSGPLTGVNSDLGVQGRNGAQLAIEHINAGGGINGRQLELLSMDDGPTAESARDADSALLRQGVVAIIGHMTSNQAIAGLPVVEQHGAVMIAPTVSTPLLTGKRDGFFRLMPDNDSWAYATADYALAQGLKTVSVIYETANQAFAGSFVDGFVTQFEAGGGRLLQRIPFTSAQRDTLEAAAIRAVSTNPDTIVLAASARDTAALAQFIDAHDSPRPVLLSSSWAYTREIFLAGGRAVEGIVFTISYLPDDTREGYLAFRKAYTERFGWEPNFAAALAYESAKVLAAALRRTGGRAQGLREALAAGTPVQGISETVTLDQYGDVQRPPYIVTIRNGEFVSIQEGHHHHHH” here?
**A.** soluble

**Q.** Which “soluble on expression in E. coli” value does the source give for “MGSDKIHHHHHHGEDSEGSGTSGISPGGNSVSEEVLKHRSMVEKYAKESDILDYVPILLAIIQVESGGTMEDVMQSSESAGLPPNSLSTEASIKQGCIYFASLVKSSKELGCDQDSIIQAYNYGGGYLNYVAKNGKKHSFTLAESFSKEKSGGQKVDYPNPIAIKENGGWRYNYGNMFYCLLVKQYLTTTQFDDKTVQGIFDEAFKYEGTAYVFGGSSPATGFDCSGLTQWCYAKVGLKLPRVAQDQYDVMTHIDLKDAKPGDLIFFHSTYDAGTYVTHVGIYAGENRMFHAGNPVGWTNLTESYWQQHLIGAGRYN” here?
**A.** not soluble

**Q.** Which “soluble on expression in E. coli” value does the source give for “MQSWKERRDFNIVKQDLDFSCGAASVVTLLNNFYGQKLTEEDVLKKLDKEQMPASFEDMRRIMPDLGFEAKGYALSFEQLAQLQIPVIVYLKYRKDDHFSVLRGIDGNTVLLADPSLGHVSMSRAQFLDAWQTREGNLAGKILAVVPKGRDAGGDKAFFTRSPKRQTEFAVGQVKWWRAY” here?
**A.** not soluble

**Q.** Which “soluble on expression in E. coli” value does the source give for “MPHTGSQHTLQATPKTAQHTGAQKAPEQAIALKKEQQLKNQEGATSHRKAHTEGCHTQKTRMSADKAGLRHRQGSGEVRARTASTRVEGECSSDGVVMMFCMPARGEEEKASGEARGEDVGSSRESRQGTAHKSTCMHTEAASLQKAGEIGKVEDAKT” here?
**A.** not soluble

**Q.** With “MGHHHHHHSHMVGLDIDSRLIHSARQNIRHYLSEELRLPPQTLEGDPGAEGEEGTTTVRKRSCFPASLTASRGPIAAPQVPLDGADTSVFPNNVVFVTGNYVLDRDDLVEAQTPEYDVVLCLSLTKWVHLNWGDEGLKRMFRRIYRHLRPGGILVLEPQPWSSYGKRKTLTETIYKNYYRIQLKPEQFSSYLTSPDVGFSSYELVATPHNTSKGFQRPVYLFHKARSPSH” as the sequence, how does the “soluble on expression in E. coli” value read?
**A.** not soluble

**Q.** With “MGSDKIHHHHHHQNQPLRITIDEGIIEPLPYAAPNFVPDSPAAAEYAAEIARVLAADLTGSGLFREIPSTAYISQVTSFDAPVQFADWKAINAQALITGAVSVSGNRLTVRFRLWDVFAGAELGSGLQFAGTTDGWRRMSHKVADAVYSRITGESGYFDSRVAFVSESGPKDQRRKRLAIMDYDGANVQYLTDSSSIVLAPRFSPTGDRVLYTSYQGGFPRIHILDVGQVQQRVLQSQDGTMSFAPRFSPDGQTVLFSLAQGGNTDLYAMNIASGQSTRLTSAPSIETAPSYAPDGSRIVFESDRSGTPQLYVMSAAGGEATRISFGQGRYGTPVWSPRGDLIAFTKQSKGRFHIGVMRADGSEERLLTASFLDEGPTWSPNGRVIMFTRETQGASGRAALYSVDISGRNLRPVRTPDGGSDPSWSPLQK” as the sequence, how does the “soluble on expression in E. coli” value read?
**A.** not soluble

**Q.** For “MGSDKIHHHHHHMIPEDVLAFFDLKQGRRPKAILNVLVGKMTVSALFWGLEYDILEYLNFWKTIDTTSFLENVDRAVEGGFLAKKDELIYLTEAGQQKQFSCTTPTPFIKKVRLDEAIDLLLLANQVISEFSFKNNRYIPVSDNLRINVILKNWFKQLKSRNHHTTDIVQKYTQGLDELLSQLQQHDADILLSYLPNHVDPGWTIDQLAQAFGISKFQMELKIRLIFSKIISDAVLTKIAPFVDLLNSTIKENVMPDSTYQTWQLIRQGKTVDEVARLKHVKTNTVKEHILMAAILDSNFPFDKFVRFNFEIGKHPTEVDFRSIQSQIADITFFDFRLIQIRKIKEQQNNNGNR”, which “soluble on expression in E. coli” value is on record?
**A.** not soluble

**Q.** With “MPKAKGKTRRQKFGYSVNRKRLNRNARRKAARGIECSHIRHAWDHAKSVRQNLAEMGLAVDPNRAVPLRKRKVKAMEVDIEERPKELVRKPYVLNDLEAEASLPEKKGNTLSRDLIDYVRYMVENHGEDYKAMARDEKNYYQDTPKQIRSKINVYKRFYPAEWQDFLDSLQKRKMEVELEHHHHHH” as the sequence, how does the “soluble on expression in E. coli” value read?
**A.** not soluble

**Q.** With “RKEEVLFGSFRLFTVTPVRYIKEIVTIGFPASIQNLIYASISMVLTRLVTGWGDTAVAIQRVGGQVESVSWMVGEGFAAAVNSFTGQNFGAGLFDRVKKGFSAAVK” as the sequence, how does the “soluble on expression in E. coli” value read?
**A.** not soluble

**Q.** For “NFIYAHLNRIIRRDDLNMIYIAGPGHGGPALVANTYLEGTYSEHYPDISQDIQGMKHLFRQFSFPGGIGSHATPEIPGSIHEGGELGYALSHAFGAVFDNPDLIAACVVGDGEAETGPLATAWHSNKFLNPVHDGAVLPILHLNGYKIANPTILARISREELDQLFQGYGYQPYIVEGEDPLTMHQLMA”, which “soluble on expression in E. coli” value is on record?
**A.** not soluble

**Q.** Which “soluble on expression in E. coli” value does the source give for “MAMNYLEAFPKELREYYKNLFGKEEANKIMKKLREPVEHYYIRVNTLKISREKLIGELKKEGLKPLRSPYLPEGLYFVREGPNFSDDFEPKLPVVVANKYAAESVYQGAMLYAPGVLKADKNIKEGDEVQIRDPKGLLVGIGIARMDYKEMTEATRGLAVEVTLPKFKLPSLSELKAFEKGYFYPQGLPSMVTARVLEPKEDDVIIDMAAAPGGKTTHIAQLLENKGEIIAIDKSKNRLRKMEENIKRLGVKNVKLVQMDARKLPDLGIKADKILLDAPCTALGVRPKLWEERTLKHIEATARYQRAFIWAAIKSLRRGGVLVYSTCTLSYEENEGNVKFMIRKGMKLEEQSIFIGSPGIGMNKVQRFYPHKHLTQGFFIAKLRKVKDI” here?
**A.** soluble

**Q.** Which “soluble on expression in E. coli” value does the source give for “SALSCSLQGPPEGSIENLINTISRDVTTLQSYMQRRKEEYDCILKTCPVCGAVEEYAFSTVSPTATFEQLNPENRILYELQQINEQRRTLYEDIVSVQQKPECELCLLCALHESAFECGATPTANSFTSQVQSQHTQQQQTPVFSESVVPRPTILSNKTRVFVV” here?
**A.** soluble

**Q.** With “MAIGGWIKLYRTIQDHWIWENPQYLKWWLDLIFMANHQDRKILFDGELKTVKVGERITSEKKLSERWEVSRNTVRKFLDLLVKDDMIELSRSRQNGTWYKVSNYAEYQNFSEIKKQRTEQRREQQAAHQTEQRTEHKQEPKEPKNLRNNNNNNKGAFIRSIWENNGFGLMSSKTMTDFDYWISDFEKIGASQKEAEQLIVKAIEIAIDANARNYNYINAILKDWEQRGFKSVEEREAARKQKKTTKKQKSNTGHSDYDDLGF” as the sequence, how does the “soluble on expression in E. coli” value read?
**A.** not soluble

**Q.** For “SIDEEMQVEAAKALREALQKYDRGRGKWHGTGKSIEPAKLGDEEVWRAELAATEVARDVDLGGRWHPAVVLGVGEQDLSVGVEDGPAKGRVPRSDIKWMKGSFKDNFKLGDVVLVRKADEDWSLRQVPEVQGGFMAMDVNTGRVLAMQGGFSYQDSVFNRATQALRQPGSSFKPFVYAAALDSGYSPATIVVDAPIEVNTPQGLWRPKNASNKFYGPTPLRTGIERSRNLMTIRLAQEVSMPVVAGYAERFGVYDHMGPFLANALGSEETTLYKMVAAYAMFANGGERVEPTLVDRIQDRFGKTIYRHDQRDCVDCLSDRLEPDQAPRIVTNRERVMNAITAYQLTSMMRGVVERGTASGTVKLPVPTAGKTGTTNDAKDVWFIGFTSNIVAGCYIGYDRPQPLGRGASGGGMCGPVFQSFMTEAVKKFGGGPF”, which “soluble on expression in E. coli” value is on record?
**A.** not soluble

**Q.** With “MGSDKIHHHHHHMAATFGPRIARADENGQGSEHVALSWQKMDASGWRSGEASPAALHSDHHCRRGFAMSTRDADDRREYYRIEDTLALEFRPAGAVEDGLESEPGATLFSLLSDLHLMDYESQHLLRHISERDRTLANYLKVMNKRIDLLGQVMVQSLLKEIGEPRKVSLSEGGVSFRHDRALPVGQLLVLRMVLLPQGFGLELRARVIHAQPHDDEFEIGTEFEALSDAQRQLLARHILQKQAQQRRLARAGQGPLGEPGQPSST” as the sequence, how does the “soluble on expression in E. coli” value read?
**A.** not soluble

**Q.** Which “soluble on expression in E. coli” value does the source give for “DNGLHYSVGFNLSDTRAEITKYDNPTKSLSSPYYEGQIVGDIWGYESSLFQSADEIASAPDQSKLDGGISKVPGDIRFMDIDGNGVVDYGENTVDKPGDMKIIGNNKARYRYGFNISADWKGFDLGIFFQGVGKRDLMLPYTFKWQYGSMWQVSTAVGNDYWREDNAGGWLPVARFNGSQALGQNQTRYLLDASYLRLKSLSFGYTLPVSLTKQWGIQKCRVYFTGENLLTFKHTPEGFDPELDDPYKYPQQKSLALGLNVVF” here?
**A.** not soluble

**Q.** For “MGSDKIHHHHHHMLKINQVKLTQVNLAQINTAKVNTIPAKVVHKMMKKVVITTLIAMNLMQVSFAADVVEKNETKVVAKPVKVAPVLNMPMAAKTELNATLYSRSHIPITASLNARVDYLVEPGDFVAQGDKLAGMDLLPIQLRQAEQKAQISRARINVAYIKNELSRLQALSKTQAVSQFKLDQMRSEHDLAAADLEIAQLKLAQINEQLSRAIITAPFAGIITERLIRVGSEVNRGDILLRLLDTEHLEARLYIPIKYLAFINKGDKLSMSASDQKTLAAVTAKIPRADPRSQTFEVRLNIPKAFNKHWAAGQLVSVSVPTQKATASLTVPRDALILRKSGSYVIKVNADNTVSRLAVVVGKGNKERVAITGSLKHGDNVAIRGAERLADGDKVVIQ”, which “soluble on expression in E. coli” value is on record?
**A.** not soluble

**Q.** With “MGSDKIHHHHHHMVNSEQALHQHDPAPILQLDKVSKSFGPVNVINQVSIDVRPGRVLALLGENGAGKSTLIKMMSGVYQPDGGQILVDGKPTTLPDTKTAESFGIATIHQELNLVPTMTVAENVMLGRTPRKWGLVNFKHLRRQAQAALDLIGVDVDLNAQVGSLGIARQQMVEIAKALSMNARILILDEPTAALTGREIDQLFKVVDQLKEKGVAMVFISHHLDEIARIGDTVSVLRDGQFIAELPADTDEDELVRLMVGRSIENQYPRSAPEIGQPLLEVKNLNAEGRFTDISLTVRAGEVVGLAGLVGAGRTEVVRSIAGVDKVDSGEVIVAGKKLRGGDISEAIKNGIGHIPEDRKAQGLVLGSSVEDNLGLATLASTARAGLVDRSGQHKRAAEVAEKLRIRMASLKQPISDLSGGNQQKAVFGRWVLAGSNVLLLDEPTRGVDVGAKVEIYNIINEMTEKGGAVLMVSSELPEVLGMADRILVMSGGRIAGELPAKGTTQDDVMALAVSQVDDSITEEAAAEIENTKEDR” as the sequence, how does the “soluble on expression in E. coli” value read?
**A.** not soluble

**Q.** For “MIGIVAAFEKVKIPEMGKSFGTGWLPPLPSLKDYTEESAQIPEMAEKLGIPTSRKETKTLELPVSIDFRNWCSPIEDQMDLGSCTAHAGVGVVEYFERRAFGKHIDGSRFFVYKTTRNLMGVKGDTGAWLRNTMGALALCGVPPEKYFPYTSRKTPGPDGEPTFDDEPSSFVYSLADNFEALNYFCHDPQGMNLPPEDVILSVKKYLAAGIPSMFGFYGFPSFKDTDVKGGIPFPGPDERSIWGHAVVAVGYDDNMKIRNTLSNKETTGAFLIRNSWGTAWGDKGYGWLPYEYALNKLEHHHHHH”, which “soluble on expression in E. coli” value is on record?
**A.** not soluble
